pKd: −log10 of the molar value.
Tests used:
[1] = molecular target: phosphorylated SNAP-ADAP fusion protein (ADAP amino acids 570-690) (human) (UniProt O15117); experiment: MST; SH2 proteins (only partly purified) serially diluted in 1x PBS with 1.75% (v/v) E. coli extract; fluorescent ADAP at 12 nM; 5 min at RT; Monolith NT.115
[2] = molecular target: site-specifically biotinylated Fyn SH2 domain (UniProt P06241); experiment: supernatant depletion assay (pull-down titration); biotinylated SH2 domains on streptavidin-coated DynaBeads, washed once and serially diluted in 1x PBS; ADAP at 8 nM (PBS with 0.1% E. coli extract), 10 min at RT; unbound ADAP in the supernatant read by in-gel fluorescence; Kd estimated from the plot
site-specifically biotinylated Fyn SH2 domain, sequence (P06241 149-246): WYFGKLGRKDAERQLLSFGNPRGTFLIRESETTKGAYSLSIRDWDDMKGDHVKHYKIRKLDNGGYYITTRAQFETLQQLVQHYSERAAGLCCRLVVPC

phosphorylated SNAP-ADAP fusion protein (ADAP amino acids 570-690) (human), sequence (O15117 570-690): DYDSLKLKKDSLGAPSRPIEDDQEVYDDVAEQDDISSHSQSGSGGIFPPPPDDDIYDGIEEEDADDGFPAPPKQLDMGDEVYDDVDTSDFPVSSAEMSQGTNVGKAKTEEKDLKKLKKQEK

| pKd [1] | pKd [2] | Substance |
| --- | --- | --- |
| 6.00 | – | Src SH2 domain without biotin (for MST) (from UniProt P12931 151-248) (domain or fragment) |
| – | 6.52 | phosphorylated SNAP-ADAP fusion protein (ADAP amino acids 570-690) (from UniProt O15117 570-690) (domain or fragment) |
| 6.00 | – | Fyn SH2 domain without biotin (for MST) (from UniProt P06241 149-246) (domain or fragment) |

Source: paper PMC3858276
